Assay results from US20170362327A1 (GLENMARK PHARMACEUTICALS S A, published 2017).
Substitutions are numbered along the chain they refer to. In names and notes the source's numbering stands.

B1: GBR VH5(K3Q, V37A, R44G)VL1 (antibody, human IgG1, kappa, V domains shown)
VH: EVQLLESGGGLVQPGGSLRLSCAASGFTFSTYTMSWARQTPGKGLEWVAYISKGGGSTYYPDTVKGRFTISRDNSKNTLYLQMNSLRAEDTAVYYCARGAMYGNDFFYPMDYWGQGTTVTVSS
VL: EIVLTQSPATLSLSPGERATLSCSASSSVSYMHWYQQKPGQAPRLLIYTTSNLASGIPARFSGSGSGTDFTLTISSLEPEDFAVYYCHQWSSYPWTFGQGTKLEIKR
notes: IGHG1, kappa
B2: GBR VH5(K3Q, V37A, T40A, P60A, T62S)VL1 (antibody, human IgG1, kappa, V domains shown)
VH: B1 VH with T40A, G44R, P61A, T63S
VL: B1 VL
notes: IGHG1, kappa
B3: GBR VH5(K3Q,V37A)VL1 (antibody, human IgG1, kappa)
heavy: not shown
light: EIVLTQSPATLSLSPGERATLSCSASSSVSYMHWYQQKPGQAPRLLIYTTSNLASGIPARFSGSGSGTDFTLTISSLEPEDFAVYYCHQWSSYPWTFGQGTKLEIKRTVAAPSVFIFPPSDEQLKSGTASVVCLLNNFYPREAKVQWKVDNALQSGNSQESVTEQDSKDSTYSLSSTLTLSKADYEKHKVYACEVTHQGLSSPVTKSFNRGEC
notes: IGHG1, kappa
B4: GBR VH5(R94K)VL1 (antibody, human IgG1, kappa)
heavy: not shown
light: B3 light
notes: IGHG1, kappa
B5: GBR VH5(V37A)VL1 (antibody, human IgG1, kappa)
heavy: not shown
light: B3 light
notes: IGHG1, kappa; also called GBR VH5(V37A)VL1 IGHG1 antibody; GBR VH5 (V37A)VL1 antibody
B6: GBR VH5(V37A)VL1 IGHG4 S228P (antibody, human IgG4 S228P, kappa)
heavy: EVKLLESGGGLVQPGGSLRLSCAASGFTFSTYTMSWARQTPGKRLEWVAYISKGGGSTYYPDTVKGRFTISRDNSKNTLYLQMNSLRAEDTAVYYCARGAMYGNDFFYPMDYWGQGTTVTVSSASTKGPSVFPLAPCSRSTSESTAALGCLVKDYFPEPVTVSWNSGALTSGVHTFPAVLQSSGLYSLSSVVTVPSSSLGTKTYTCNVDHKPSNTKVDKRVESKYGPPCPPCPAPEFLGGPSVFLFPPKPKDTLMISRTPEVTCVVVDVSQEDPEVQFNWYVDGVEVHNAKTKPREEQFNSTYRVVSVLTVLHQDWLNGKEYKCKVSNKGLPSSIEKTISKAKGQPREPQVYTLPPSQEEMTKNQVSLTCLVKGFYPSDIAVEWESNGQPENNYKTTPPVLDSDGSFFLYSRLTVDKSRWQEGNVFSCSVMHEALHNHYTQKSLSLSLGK
light: B3 light
notes: IGHG4 isotype with S228P (EU) hinge substitution, kappa
B7: GBR VH5(K3Q,V37A)VL1 IGHG4 S228P (antibody, human IgG4 S228P, kappa)
heavy: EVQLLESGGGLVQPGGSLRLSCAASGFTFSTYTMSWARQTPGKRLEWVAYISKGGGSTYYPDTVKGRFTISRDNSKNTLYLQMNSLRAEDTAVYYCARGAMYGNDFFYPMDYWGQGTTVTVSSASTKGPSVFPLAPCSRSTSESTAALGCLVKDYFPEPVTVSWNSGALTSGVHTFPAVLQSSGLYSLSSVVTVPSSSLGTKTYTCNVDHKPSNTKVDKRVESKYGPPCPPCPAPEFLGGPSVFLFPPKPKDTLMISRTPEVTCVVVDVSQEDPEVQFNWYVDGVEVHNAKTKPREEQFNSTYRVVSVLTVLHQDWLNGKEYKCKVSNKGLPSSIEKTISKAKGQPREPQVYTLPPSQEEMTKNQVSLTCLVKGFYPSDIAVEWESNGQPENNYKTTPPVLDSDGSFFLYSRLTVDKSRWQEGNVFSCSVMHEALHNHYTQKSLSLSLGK
light: B3 light
notes: as for B6
B8: BXhVH1VL1 (antibody, human IgG1, kappa, V domains shown)
VH: B1 VH with A37V, T40A, A49S, R98K
VL: B1 VL
notes: IGHG1, kappa
B9: BXhVH3VL1 (antibody, human IgG1, kappa)
heavy: not shown
light: B3 light
notes: IGHG1, kappa
B10: BXhVH3VL3 (antibody, human IgG1, kappa, V domains shown)
VH: B1 VH with A37V, G44R, R98K
VL: B1 VL with E1Q, A42S, A59S, D69F, F70Y, Q99G
notes: IGHG1, kappa
B11: BXhVH5VL3 (antibody, human IgG1, kappa, V domains shown)
VH: B1 VH with Q3K, A37V, G44R
VL: B1 VL with E1Q, A42S, A59S, D69F, F70Y, Q99G
B12: GBR VH1(V37A)VL1 (antibody, human IgG1, kappa, V domains shown)
VH: B1 VH with T40A, A49S, R98K
VL: B1 VL
notes: IGHG1, kappa
B13: GBR VH3(V37A)VL1 (antibody, human IgG1, kappa, V domains shown)
VH: B1 VH with G44R, R98K
VL: B1 VL
notes: IGHG1, kappa
B14: GBR VH3(V37A)VL3 (antibody, human IgG1, kappa, V domains shown)
VH: B1 VH with G44R, R98K
VL: B1 VL with E1Q, A42S, A59S, D69F, F70Y, Q99G
notes: IGHG1, kappa
B15: GBR VH5(V37A)VL3 (antibody, human IgG1, kappa, V domains shown)
VH: B1 VH with Q3K, G44R
VL: B1 VL with E1Q, A42S, A59S, D69F, F70Y, Q99G
notes: IGHG1, kappa
B16: MNAC13 mouse antibody (antibody, mouse IgG1, kappa, V domains shown)
VH: EVKLVESGGGLVQPGGSLKLSCAASGFTFSTYTMSWARQTPEKRLEWVAYISKGGGSTYYPDTVKGRFTISRDNAKNTLYLQMSSLKSEDTALYYCARGAMYGNDFFYPMDYWGQGTSVTVSS
VL: QIVLTQSPAIMSASLGEEITLTCSASSSVSYMHWYQQKSGTSPKLLIYTTSNLASGVPSRFSGSGSGTFYSLTISSVEAEDAADYYCHQWSSYPWTFGGGTKLEIKA
notes: Mouse monoclonal anti-TrkA antibody; also called parental murine antibody

These binders were tested against T1, monovalent human TrkA extracellular region (human, UniProt P04629 33-423) (assay: SPR (BIAcore 2000), antibody captured via Fc, monovalent TrkA extracellular region as analyte).
T1 construct: also called recombinant monovalent human TrkA extracellular domain
T1 sequence (P04629 33-423): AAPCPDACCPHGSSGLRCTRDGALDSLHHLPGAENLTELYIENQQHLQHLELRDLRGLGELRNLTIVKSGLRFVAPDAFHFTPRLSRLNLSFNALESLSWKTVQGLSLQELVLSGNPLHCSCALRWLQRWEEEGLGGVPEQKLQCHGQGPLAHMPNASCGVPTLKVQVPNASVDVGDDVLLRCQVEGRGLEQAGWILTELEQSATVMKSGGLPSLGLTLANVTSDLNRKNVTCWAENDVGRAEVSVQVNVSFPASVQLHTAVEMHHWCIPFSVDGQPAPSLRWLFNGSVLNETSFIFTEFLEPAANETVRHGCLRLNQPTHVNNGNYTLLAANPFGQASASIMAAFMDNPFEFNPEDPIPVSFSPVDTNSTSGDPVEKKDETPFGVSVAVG
Protocol: (§1) SPR analysis was used to measure the association and dissociation rate constants for the binding kinetics of the different antibodies (mouse and humanized antibodies). The binding kinetics of the mouse antibody and humanized variants were measured on a BIACORE 2000 instrument (GE Healthcare Europe GmbH, Glattbrugg, Switzerland) at room temperature, and analyzed with the BiaEvaluation software (v4.1, GE Healthcare Europe GmbH, Glattbrugg, Switzerland).
(§2) Antibodies were immobilized via capture of their Fc portion to allow for correct orientation on the sensor chip surface. A monoclonal mouse anti-human IgG (Fc) antibody sensor chip was used to capture all humanized antibodies regardless of their isotypes (Human Antibody Capture Kit, catalogue number BR-1008-39, GE Healthcare Europe GmbH), and a polyclonal rabbit anti-mouse immunoglobulin sensor chip was used to capture the MNAC13 mouse antibody (Mouse Antibody Capture Kit, catalogue number BR-1008-38, GE Healthcare Europe GmbH).
(§3) Data (sensorgram: fc2-fc1) were fitted with a 1:1 Langmuir model with mass transfer in spite of having little mass transfer limitation in mass transfer tests. To account for the experimental variations in captured antibody at the beginning of each measurement, the Rmax value was set to local in all fits. Dissociation times were of at least 350 seconds. Measurements were performed in triplicate, and included zero-concentration samples for referencing. Both Chi2 and residual values were used to evaluate the quality of a fit between the experimental data and individual binding models.
With B1 the Kd was 20 nM.
B2 was tested, and the Kd was 48 nM.
Binder B3 has a Kd of 15.4 nM.
B4 was tested, and the Kd was 52 nM.
Binder B5 has a Kd of 16 nM.
In the case of B6, the Kd is reported as 15 nM.
In the case of B7, the Kd is reported as 15 nM.

Each binder was assayed against T1, monovalent human TrkA extracellular … (assay: SPR, against BXhVH5VL1).
Protocol: as §1, §2, §3
B3 was tested, and the “fold decrease of KD against BXhVH5VL1” value was 2.7 fold.
For B5, the “fold decrease of KD against BXhVH5VL1” value was 2.5 fold and the “fold increase in affinity against BXhVH5VL1” value was 2.5 fold.

Target: T1, monovalent human TrkA extracellular …
Test: SPR (BIAcore 2000), antibody captured via Fc, monovalent TrkA extracellular region as analyte
Remark: another data set of the same source
Protocol: as §1, §2, §3
B8 was tested, and the Kd was 426 nM, the koff was 0.0133 s⁻¹ and the kon was 31300 M⁻¹ s⁻¹.
B9 showed a Kd of 133 nM, a koff of 0.00619 s⁻¹ and a kon of 46500 M⁻¹ s⁻¹.
B10 showed a Kd of 134 nM, a koff of 0.00459 s⁻¹ and a kon of 31400 M⁻¹ s⁻¹.
With B11 the Kd was 63 nM, the koff was 0.00395 s⁻¹ and the kon was 62300 M⁻¹ s⁻¹.
B12 gave a Kd of 338 nM, a koff of 0.00663 s⁻¹ and a kon of 19600 M⁻¹ s⁻¹.
With B13 the Kd was 123 nM, the koff was 0.00471 s⁻¹ and the kon was 38200 M⁻¹ s⁻¹.
B14 showed a Kd of 95 nM, a koff of 0.00295 s⁻¹ and a kon of 31000 M⁻¹ s⁻¹.
With B3 the Kd was 15.4 nM, the koff was 0.00262 s⁻¹ and the kon was 170000 M⁻¹ s⁻¹.
In the case of B5, the Kd is reported as 16 nM, the koff is reported as 0.00225 s⁻¹ and the kon is reported as 140000 M⁻¹ s⁻¹.
B15 was tested, and the Kd was 28 nM, the koff was 0.00205 s⁻¹ and the kon was 74500 M⁻¹ s⁻¹.

Each binder was assayed against T1, monovalent human TrkA extracellular … (assay: SPR (BIAcore 2000), antibody captured via anti-mouse immunoglobulin, monovalent TrkA extracellular region as analyte).
Protocol: as §1, §2, §3
In the case of B16, the Kd is reported as 18 nM, the koff is reported as 0.00109 s⁻¹ and the kon is reported as 60200 M⁻¹ s⁻¹.
